Publication PMC5473643, “A semisynthetic Atg3 reveals that acetylation promotes Atg3 membrane binding and Atg8 lipidation” (Nature Communications, 2017)

What was measured:
Conditions in all cases: both partners purified
[1] = target: T1, WT Atg3 (bacterially expressed and purified) (Saccharomyces cerevisiae, UniProt P40344 1-310); assay: SPR; Biacore T200, 25 °C; Atg3 immobilised by amine coupling on CM5 chip (400 RU); Atg8 injected at 30 μl/min up to 3,200 nM; 10 mM phosphate buffer, 2.7 mM KCl, 137 mM NaCl, 0.05% surfactant P20, pH 7.4
T1 construct: Atg3, E2-like enzyme of yeast Saccharomyces cerevisiae (310 amino acids); 'the region coding WT Atg3' inserted into pGEX-6P-1; GST excised with PreScission protease; residues of the vector may remain at the N-terminus (surmised); also called Atg3 WT; E. coli expressed WT Atg3; source: E. coli BL21 (DE3), purified (glutathione-Sepharose 4B, PreScission protease, Mono Q, Superdex 200)
T1 sequence (looked up): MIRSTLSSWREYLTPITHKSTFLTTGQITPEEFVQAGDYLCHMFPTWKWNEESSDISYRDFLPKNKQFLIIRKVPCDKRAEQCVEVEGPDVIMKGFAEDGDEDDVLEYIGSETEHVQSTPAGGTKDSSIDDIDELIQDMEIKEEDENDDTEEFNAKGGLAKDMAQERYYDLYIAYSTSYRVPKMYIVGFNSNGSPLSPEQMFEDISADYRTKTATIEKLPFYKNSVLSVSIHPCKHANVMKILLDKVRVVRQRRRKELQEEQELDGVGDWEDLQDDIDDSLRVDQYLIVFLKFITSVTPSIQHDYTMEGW

[2] = target: T2, semi-synthetic Atg3 K19ac-K48ac (Saccharomyces cerevisiae, UniProt P40344 1-310, Gln27 mutated to Cys27 | S54C, acetyl-lysine at K19 and K48); assay: as above
T2 construct: Atg3 of yeast Saccharomyces cerevisiae, Atg3(1-310), 310 amino acids, with Gln27 and Ser54 mutated to Cys for ligation; also called K19/K48-diacetylated Atg3; 2ac
T2 sequence (looked up): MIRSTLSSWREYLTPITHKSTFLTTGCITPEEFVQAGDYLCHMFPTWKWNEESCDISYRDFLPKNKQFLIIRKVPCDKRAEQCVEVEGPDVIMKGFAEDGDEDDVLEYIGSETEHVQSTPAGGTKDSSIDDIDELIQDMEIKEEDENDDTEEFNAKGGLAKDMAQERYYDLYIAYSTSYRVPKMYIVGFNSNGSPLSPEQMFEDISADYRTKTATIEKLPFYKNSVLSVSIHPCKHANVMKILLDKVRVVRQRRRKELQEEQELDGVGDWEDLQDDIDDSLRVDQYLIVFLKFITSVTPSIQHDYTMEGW

[3] = target: T1, WT Atg3 (bacterially expressed and …); assay: MST; Monolith NT.115 (20% LED, 20% MST power); Atg8 labelled with Dye NT-647 NHS, Atg3 at different concentrations; 50 mM Tris-HCl pH 7.4, 150 mM NaCl, 10 mM MgCl2, 0.05% Tween-20; apparent KD, mean of three independent experiments
[4] = target: T2, semi-synthetic Atg3 K19ac-K48ac; assay: as above

B1: Atg8 (bacterially expressed and purified) (natural protein, yeast, UniProt P38182 1-117, looked up)
chain: MKSTFKSEYPFEKRKAESERIADRFKNRIPVICEKAEKSDIPEIDKRKYLVPADLTVGQFVYVIRKRIMLPPEKAIFIFVNDTLPPTAALMSAIYQEHKDKDGFLYVTYSGENTFGR
notes: Atg8 of yeast; 'the region coding ; Atg8' inserted into pGEX-6P-1; In the MST experiment this Atg8 was labelled on primary amines with Dye NT-647 NHS; also called recombinant Atg8; purified Atg8; source: E. coli BL21 (DE3), purified (glutathione-Sepharose 4B, PreScission protease, Mono Q, Superdex 200)
- Kd [1]: 730 ± 50 nM
- Kd [2]: 650 ± 70 nM
- Kd [3]: 520 ± 70 nM
- Kd [4]: 490 ± 80 nM
